Test results reported in US20190367631A1 (Regeneron, published 2019).

Key:
[1] = target: T1, full length human MSR1 with a C-terminal Myc tag, on HEK293.Myc.hMSR1 cells (human, UniProt P21757 1-451); assay: cell-based or functional assay
T1 sequence (looked up): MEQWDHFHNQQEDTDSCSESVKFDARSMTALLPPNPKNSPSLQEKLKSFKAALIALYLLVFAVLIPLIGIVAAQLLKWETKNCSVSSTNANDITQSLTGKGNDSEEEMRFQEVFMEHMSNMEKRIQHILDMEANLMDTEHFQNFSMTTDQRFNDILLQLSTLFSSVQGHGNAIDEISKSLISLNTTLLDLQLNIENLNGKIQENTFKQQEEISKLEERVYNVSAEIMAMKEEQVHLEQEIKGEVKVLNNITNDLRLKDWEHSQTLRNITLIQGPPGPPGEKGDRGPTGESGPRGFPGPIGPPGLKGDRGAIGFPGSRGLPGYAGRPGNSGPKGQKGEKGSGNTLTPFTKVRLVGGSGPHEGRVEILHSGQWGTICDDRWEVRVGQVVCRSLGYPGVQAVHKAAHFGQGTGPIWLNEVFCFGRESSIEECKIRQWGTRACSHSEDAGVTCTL

[2] = target: T2, mouse MSR1 on RAW264.7 cells (mouse, UniProt P30204 1-458); assay: flow cytometry, RAW264.7 cells
T2 construct: whole, on cells; also called MSR1 positive RAW264.7 cells
T2 sequence (looked up): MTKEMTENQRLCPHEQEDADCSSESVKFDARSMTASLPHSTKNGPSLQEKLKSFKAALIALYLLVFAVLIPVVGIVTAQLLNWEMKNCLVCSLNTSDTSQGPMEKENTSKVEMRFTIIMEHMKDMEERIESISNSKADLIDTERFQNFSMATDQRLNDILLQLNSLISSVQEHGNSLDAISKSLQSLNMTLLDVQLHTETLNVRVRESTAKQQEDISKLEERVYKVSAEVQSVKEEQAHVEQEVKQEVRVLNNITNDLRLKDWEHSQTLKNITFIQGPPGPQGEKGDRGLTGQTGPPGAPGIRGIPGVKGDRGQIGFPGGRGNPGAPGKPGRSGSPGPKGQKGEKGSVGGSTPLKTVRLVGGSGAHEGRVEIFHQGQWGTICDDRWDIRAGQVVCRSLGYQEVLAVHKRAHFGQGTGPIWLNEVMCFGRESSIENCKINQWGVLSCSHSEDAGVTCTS
Method: To block binding to Fc receptors, RAW264.7 cells were incubated for 30 minutes at 4° C. with 500 pg/mL mouse IgG (Jackson ImmunoResearch, Cat #015-000-003) diluted in staining buffer, while B16F10.9 cells remained in staining buffer. […] The signal to noise (S/N) was determined by calculating the ratio of the anti-MSR1 antibodies or the control antibodies MFI to the unstained sample MFI (Table 11).

[3] = target: T3, full length monkey MSR1 on HEK293.mfMSR1 cells (Macaca fascicularis, UniProt A0A2K5UWE2 1-451); assay: ECL cell binding, HEK293.mfMSR1 cells, 11 nM
T3 construct: whole, on cells
T3 sequence: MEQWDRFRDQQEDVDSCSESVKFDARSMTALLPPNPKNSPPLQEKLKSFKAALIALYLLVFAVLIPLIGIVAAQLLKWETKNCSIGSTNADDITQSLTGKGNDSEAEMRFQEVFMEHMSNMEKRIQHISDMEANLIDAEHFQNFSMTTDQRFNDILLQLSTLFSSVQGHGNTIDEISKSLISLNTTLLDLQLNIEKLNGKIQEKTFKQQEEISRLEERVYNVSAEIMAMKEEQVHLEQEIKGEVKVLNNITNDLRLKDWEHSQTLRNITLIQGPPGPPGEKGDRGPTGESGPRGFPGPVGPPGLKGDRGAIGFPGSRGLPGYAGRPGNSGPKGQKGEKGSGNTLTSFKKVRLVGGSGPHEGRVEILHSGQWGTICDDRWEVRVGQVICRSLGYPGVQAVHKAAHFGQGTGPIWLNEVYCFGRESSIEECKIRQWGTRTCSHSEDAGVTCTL
Method: (§1) All cells were washed once with 1×PBS with Ca²⁺/Mg²⁺ and counted with a Cellometer™ Auto T4 cell counter (Nexcelom Bioscience). Approximately 1.0×10⁴ cells were seeded separately onto 96-well carbon electrode plates [MULTI-ARRAY high bind plate, Meso Scale Diagnostics] and incubated for 1 hour at 37° C. Non-specific binding sites were then blocked by 2% BSA (w/v) in PBS with Ca²⁺/Mg²⁺ for 1 hour at room temperature. THP-1 cells were pre-incubated for 0.5 hours at room temperature in sample dilution buffer with: 1) 1 mg/mL Fc receptor block reagents to block Fc gamma receptors on THP-1 cell surface [whole molecule human IgG (Jackson Immunoresearch, Cat #009-000-003) for wells being tested with anti-MSR1-mFc antibodies or 2) whole molecule mlgG (Jackson Immunoresearch, Cat #015-000-003) for wells being tested with anti-MSR1-hFc antibodies. Antibody binding on HEK293.Myc.hMSR1, HEK293.mfMSR1 and HEK293 cells was tested without Fc receptor block reagents. […] Plates were then washed to remove unbound antibodies an AquaMax2000 plate washer with a cell washing head (MDS Analytical Technologies). […] Plates were washed and developed with Read Buffer (Meso Scale Diagnostics, Cat # R92TD-2) according to manufacturer's recommended procedure and luminescent signals were recorded with a SECTOR Imager 600 (Meso Scale Diagnostics). Luminescence intensity, measured in relative light units (RLU), was recorded to indicate the binding intensity of each antibody at the range of concentrations.

[4] = target: T1, full length human MSR1 with a …; assay: ECL cell binding, HEK293.Myc.hMSR1 cells, 11 nM
Method: as §1

B1: H1H27729P-N297Q (antibody, human IgG1, V domains shown)
VH: QVQLVESGGGLVKPGGSLRLSCAASGFIFSDYYMSWIRQAPGKGLEWVSYISSSGTTIYGDSVKGRFTMSRDNAKNSLYLQMNSLRAEDTAVYYCARNYALFDYWGQGTLVTVSS
VL: DIQMTQSPSSLSASVGDRVTITCQASQDISKYLNWYQQKPGKAPKLLIYYTSNLETGVPSRFSGSGSGTDFTFTISSLQPEDIATYYCHQSDYLPFTFGPGTKVDIKR
notes: human IgG1 Fc with N297Q
% Inhibition of Dil-Acetylated LDL uptake [1]: 28%
IC50 of Dil-Acetylated LDL uptake inhibition [1]: 1.2 nM
MFI [2]: 3480 MFI
S/N (MFI over unstained MFI) [2]: 1
ratio of binding signal (RLU) to isotype control [3]: 6 fold
ratio of binding signal (RLU) to isotype control [4]: 17 fold

B2: H1H27731P-N297Q (antibody, V domains shown)
VH: QLQLQESGPGLVKPSETLSLTCTVSGGSISRISYYWGWIRQPPGKGLEWIGSIYDSGSTYYNPSLKSRVTISIDTSKNQFSLKLSSVTAADTAVYYCVRYSSSSAFAFDYWGQGTLVTVSS
VL: DIQMTQSPSSVSASVGDRVTITCRASQGISSWLAWYQQKPGKAPKLLIYAASSLQSGVPSRFSGSGSGTDFTLTISSLQPEDFATYYCQQANSFPFTFGPGTKVDIKR
notes: human IgG1 Fc with N297Q
% Inhibition of Dil-Acetylated LDL uptake [1]: 37%
% Inhibition of Dil-Oxidized LDL uptake [1]: 62%
IC50 of Dil-Acetylated LDL uptake inhibition [1]: 1.8 nM
IC50 of Dil-Oxidized LDL uptake inhibition [1]: > 10 nM
MFI [2]: 3510 MFI
S/N (MFI over unstained MFI) [2]: 1
ratio of binding signal (RLU) to isotype control [3]: 43 fold
ratio of binding signal (RLU) to isotype control [4]: 48 fold

B3: H1H27766P2-N297Q (antibody, human IgG1, V domains shown)
VH: EVQLVESGGGLVQPGGSLRLSCAASGFTFSSFAMSWVRQAPGKELEWVSSISGRGGSTYYADSVRGRFTISRDNSKITLYLQMNSLRAEDTAVYYCAKDIVFRYTSSAYWYFDLWGRGTLVTVSS
VL: not shown
notes: human IgG1 Fc with N297Q; also called H1H27766P-N297Q
% Inhibition of Dil-Acetylated LDL uptake [1]: 38%
% Inhibition of Dil-Oxidized LDL uptake [1]: 72%
IC50 of Dil-Acetylated LDL uptake inhibition [1]: 3.5 nM
IC50 of Dil-Oxidized LDL uptake inhibition [1]: 3.7 nM
MFI [2]: 3810 MFI
S/N (MFI over unstained MFI) [2]: 1
ratio of binding signal (RLU) to isotype control [3]: 13 fold
ratio of binding signal (RLU) to isotype control [4]: 20 fold

B4: H1H27759P2-N297Q (antibody, human IgG1, V domains shown)
VH: EVQLVESGGGFVQPGGSLRLSCAASGFTFSSYAMSWVRQAPGKGLEWVSAISGTGSNTYYADSVKGRFTISRDNSKNTLYLQMNSLRAEDTAVYYCAKDRVTTVTYYFDYWGQGTLVTVSS
VL: not shown
notes: human IgG1 Fc with N297Q; also called H1H27759P-N297Q
% Inhibition of Dil-Acetylated LDL uptake [1]: 48%
% Inhibition of Dil-Oxidized LDL uptake [1]: 74%
IC50 of Dil-Acetylated LDL uptake inhibition [1]: > 100 nM
IC50 of Dil-Oxidized LDL uptake inhibition [1]: > 10 nM
MFI [2]: 3290 MFI
S/N (MFI over unstained MFI) [2]: 1
ratio of binding signal (RLU) to isotype control [3]: 25 fold
ratio of binding signal (RLU) to isotype control [4]: 23 fold

B5: H1H27761P2-N297Q (antibody, human IgG1, V domains shown)
VH: EVQLVESGGDLVQPGGSLRLSCSASGFTFNIYAMSWVRQAPGKGLEWVSGISGSGGSTYYADSVKGRFTISRDNSKNTLYFQMNSLRVEDTAVYYCAKKISSSSYYYYAMDVWGQGTTVTVSS
VL: not shown
notes: human IgG1 Fc with N297Q; also called H1H27761P-N297Q
% Inhibition of Dil-Acetylated LDL uptake [1]: 29%
% Inhibition of Dil-Oxidized LDL uptake [1]: 43%
IC50 of Dil-Acetylated LDL uptake inhibition [1]: > 100 nM
IC50 of Dil-Oxidized LDL uptake inhibition [1]: 9.5 nM
MFI [2]: 3840 MFI
S/N (MFI over unstained MFI) [2]: 1
ratio of binding signal (RLU) to isotype control [3]: 15 fold
ratio of binding signal (RLU) to isotype control [4]: 23 fold

B6: H1H27762P2-N297Q (antibody, human IgG1, V domains shown)
VH: QVQLVQSGAEVKKPGSSVKVSCKASGGTFSRYDISWVRQAPGQGLEWMGGIIPIFGTSNYAQKFQGRVTITTDESTSTVYMELSSLRSEDTAVYYCARGGRYGWFDPWGQGTLVTVSS
VL: not shown
notes: human IgG1 Fc with N297Q; also called H1H27762P-N297Q
% Inhibition of Dil-Acetylated LDL uptake [1]: 38%
% Inhibition of Dil-Oxidized LDL uptake [1]: 78%
IC50 of Dil-Acetylated LDL uptake inhibition [1]: 2.9 nM
IC50 of Dil-Oxidized LDL uptake inhibition [1]: 4 nM
MFI [2]: 3520 MFI
S/N (MFI over unstained MFI) [2]: 1
ratio of binding signal (RLU) to isotype control [3]: 25 fold
ratio of binding signal (RLU) to isotype control [4]: 33 fold

B7: H1H21234N-N297Q (antibody, human IgG1, V domains shown)
VH: QVQLQESGPGLVKPSETLSLTCTVTGGSISRNYWSWIRQPPGKGLEWIGYIYYSGSIDYNPSLKSRVTISVDTSKNQFSLKLSSMTAADTAVYYCARDRWNWKYGMDVWGQGTTVIVSS
VL: EIVLTQSPGTLSLSPGERATLSCRASQTVRNNYLAWYHQKPGQAPRLLIYGASSRATGIPDRFSGSGSGTDFTLTISRLEPEDFTVYYCHQYGNSPWTFGQGTKMEIKR
notes: human IgG1 Fc with N297Q point mutation (EU numbering)
% Inhibition of Dil-Acetylated LDL uptake [1]: 34%
% Inhibition of Dil-Oxidized LDL uptake [1]: 52%
IC50 of Dil-Acetylated LDL uptake inhibition [1]: 1.3 nM
IC50 of Dil-Oxidized LDL uptake inhibition [1]: 6.1 nM
MFI [2]: 7050 MFI
S/N (MFI over unstained MFI) [2]: 3
ratio of binding signal (RLU) to isotype control [3]: 35 fold
ratio of binding signal (RLU) to isotype control [4]: 43 fold

B8: H1H27734P-N297Q (antibody, human IgG1, V domains shown)
VH: EVQLVESRGGLVQPGGSLRLSCAASGFTFSSYAMSWVRQAPGKGLEWVSAISGSGGSTFYADSVKGRFTISRDNSKNTVYLQMNSLRAEDTAVYYCAKALVLRFLEWLGDYWGQGTLVTVSS
VL: DIQMTQSPSTLSASVGDRVTITCRASQSISSWLAWFQQKPGKAPKLLIYKASSLESGVPSRFSGSGSGTEFTLTISSLQPDDFATYYCQQYKSYWTFGQGTKVEIKR
notes: human IgG1 Fc with N297Q
% Inhibition of Dil-Oxidized LDL uptake [1]: 22%
IC50 of Dil-Oxidized LDL uptake inhibition [1]: 5.5 nM
MFI [2]: 4780 MFI
S/N (MFI over unstained MFI) [2]: 1
ratio of binding signal (RLU) to isotype control [3]: 28 fold
ratio of binding signal (RLU) to isotype control [4]: 40 fold
